Test results from paper PMC4313731 (Chemistry & biology, 2013).
Positions count from the first letter of the chain named. Names and notes keep the numbering of the source.

B1: PhnY (Sinorhizobium meliloti 1021; R447A) (protein)
chain: MTNAEVTIAVRHEPMRIAGRLVDTDDRVEVRYPWNDTVVGTVPAGRAEHAREAFAIAAAYQPKLTRYERQKILLATAEALAARKEEISDVITLELGISKADSLYEVGRAFDVFTLAGQMCIRDDGEIFSCDLTPHGKARKIFTMREPLTAISAITPFNHPLNMVAHKVAPAIATNNCVVVKPTELTPMTALLLADILYEAGLPPEMLSVVTGWPADIGMEMITNPHVDLVTFTGSVPVGKLIAANAHYKRQVLELGGNDPLIILNDLSDDDLARAADLAVAGATKNSGQRCTAVKRILCQESVADRFVPLVLERAKRLRFGDPMDRSTDLGTVIHEKAAALFEERVMRAAEEGADILYHPGRSGALLPPIVVDRVPHQSDLVLEETFGPIIPIVRVPDDDDATITLSNSTAFGLSSGVCTNDYRRMQKYIAGLKVGTVNIWEVPGYAIEMSPFGGIKDSGNGYKEGVIEAMKSFTNVKTFSLPWP
B2: PhnY (Sinorhizobium meliloti 1021) (protein)
chain: B1 chain with A447R
B3: GAPDH (Streptococcus mutans UA159) (protein)
chain: MTKQYKNYVNGEWKLSENEIKIYEPASGAELGSVPAMSTEEVDYVYASAKKAQPAWRSLSYIERAAYLHKVADILMRDKEKIGAVLSKEVAKGYKSAVSEVVRTAEIINYAAEEGLRMEGEVLEGGSFEAASKKKIAVVRREPVGLVLAISPFNYPVNLAGSKIAPALIAGNVIAFKPPTQGSISGLLLAEAFAEAGLPAGVFNTITGRGSEIGDYIVEHQAVNFINFTGSTGIGERIGKMAGMRPIMLELGGKDSAIVLEDADLELTAKNIIAGAFGYSGQRCTAVKRVLVMESVADELVEKIREKVLALTIGNPEDDADITPLIDTKSADYVEGLINDANDKGAAALTEIKREGNLICPILFDKVTTDMRLAWEEPFGPVLPIIRVTSVEEAIEISNKSEYGLQASIFTNDFPRAFGIAEQLEVGTVHINNKTQRGTDNFPFLGAKKSGAGIQGVKYSIEAMTTVKSVVFDIK
B4: PhnY (Sinorhizobium meliloti 1021; R108A) (protein)
chain: B1 chain with R108A, A447R
B5: PhnY (Sinorhizobium meliloti 1021; N158A) (protein)
chain: B1 chain with N158A, A447R
B6: PhnY (Sinorhizobium meliloti 1021; R290A) (protein)
chain: B1 chain with R290A, A447R

What was measured:
PhnY = PhnY (Sinorhizobium meliloti, UniProt Q92UV7); test: X-ray crystal structure of ternary complex with NAD+, […] Å; format: binding; details: NAD+ bound; active site, non-covalent
Sequence of PhnY (Q92UV7 whole entry): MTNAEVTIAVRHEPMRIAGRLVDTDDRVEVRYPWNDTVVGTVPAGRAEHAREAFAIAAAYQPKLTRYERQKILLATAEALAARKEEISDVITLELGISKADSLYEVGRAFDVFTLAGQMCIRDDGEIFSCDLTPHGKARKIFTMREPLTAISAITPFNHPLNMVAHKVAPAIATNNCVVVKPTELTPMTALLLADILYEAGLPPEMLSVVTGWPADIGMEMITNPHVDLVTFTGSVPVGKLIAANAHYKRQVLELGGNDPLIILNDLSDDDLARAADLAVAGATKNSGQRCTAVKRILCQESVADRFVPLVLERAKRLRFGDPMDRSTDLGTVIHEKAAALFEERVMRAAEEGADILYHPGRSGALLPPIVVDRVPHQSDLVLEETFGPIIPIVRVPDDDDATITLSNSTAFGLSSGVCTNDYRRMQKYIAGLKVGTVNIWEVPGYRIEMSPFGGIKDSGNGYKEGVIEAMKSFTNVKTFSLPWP

[1] = substrate: O=CCP(=O)(O)O; test: steady-state kinetics, NAD+ reduction monitored; format: biochemical, Sinorhizobium meliloti; details: saturating NAD+, 50 mM HEPES pH 7.5, 10 mM MgSO4, 30 °C
[2] = substrate: O=CCCP(=O)(O)O; test: steady-state kinetics, NAD+ reduction monitored; format: biochemical, Sinorhizobium meliloti; details: 50 mM HEPES pH 7.5, 10 mM MgSO4, 30 °C
[3] = substrate: O=CC(O)COP(=O)(O)O; test: steady-state kinetics, NADP+ reduction monitored; format: biochemical, Streptococcus mutans; details: racemic G3P, saturating NADP+, 50 mM HEPES pH 8.0, 5 mM DTT
[4] = substrate: O=CCCP(=O)(O)O; test: steady-state kinetics, NADP+ reduction monitored; format: biochemical, Streptococcus mutans; details: saturating NADP+, 50 mM HEPES pH 8.0, 5 mM DTT

Row | Molecule | Km [1] [µM] | kcat [1] [s⁻¹] | also measured
1 | O=C(O)CP(=O)(O)O [PnA] |  |  | X-ray crystal structure of ternary complex with NAD+, 2.07 Å (PhnY): cocrystal structure of PhnY in complex with NAD^+ and PnA shows clear and continuous density
2 | B1 | 150 ± 20 | 0.076 ± 0.003 | 
3 | B2 |  |  | Km [2]: 3300 ± 100 µM; kcat [2]: 1.5 ± 0.1 s⁻¹
4 | B3 |  |  | Km [3]: 25 ± 7 µM; kcat [3]: 22 ± 2 s⁻¹; Km [4]: 1500 ± 300 µM; kcat [4]: 0.038 ± 0.022 s⁻¹
5 | B4 | 9.7 ± 0.8 | 0.051 ± 0.001 | 
6 | B5 | 29 ± 9 | 0.010 ± 0.001 | 
7 | B6 | 5.1 ± 0.6 | 0.12 ± 0.003 | 
